Measurements from patent EP4669671A1 (dated 2025).

T1: His-tagged human IL2RA protein (ACROBiosystems Inc., Cat#: ILA-H52H9) (human, UniProt P01589 22-213, limits assumed)
T1 construct: Bought protein; also called hIL2RA-his; not shown: His tag
T1 sequence: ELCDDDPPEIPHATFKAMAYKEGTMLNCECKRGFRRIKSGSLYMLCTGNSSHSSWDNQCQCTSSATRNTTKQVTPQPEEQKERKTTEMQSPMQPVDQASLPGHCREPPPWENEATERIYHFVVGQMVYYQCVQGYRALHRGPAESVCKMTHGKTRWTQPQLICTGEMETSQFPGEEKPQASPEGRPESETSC

T2: monkey (Macaca fascicularis) IL2RA expressed on CHO-S cells (CHO-S-fasIL2RA cells) (monkey (Macaca fascicularis), UniProt Q5MNY4 22-272)
T2 construct: also called monkey IL2RA
T2 chain: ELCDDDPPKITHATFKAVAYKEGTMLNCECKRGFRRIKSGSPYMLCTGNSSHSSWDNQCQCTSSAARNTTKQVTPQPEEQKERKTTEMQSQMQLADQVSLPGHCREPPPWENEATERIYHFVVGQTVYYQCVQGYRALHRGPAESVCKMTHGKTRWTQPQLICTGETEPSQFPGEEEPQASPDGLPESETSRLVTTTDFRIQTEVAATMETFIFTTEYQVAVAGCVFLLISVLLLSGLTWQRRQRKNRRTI

T3: human IL2RA expressed on CHO-S cells (CHO-S-hIL2RA cells) (human, UniProt P01589 22-272)
T3 sequence: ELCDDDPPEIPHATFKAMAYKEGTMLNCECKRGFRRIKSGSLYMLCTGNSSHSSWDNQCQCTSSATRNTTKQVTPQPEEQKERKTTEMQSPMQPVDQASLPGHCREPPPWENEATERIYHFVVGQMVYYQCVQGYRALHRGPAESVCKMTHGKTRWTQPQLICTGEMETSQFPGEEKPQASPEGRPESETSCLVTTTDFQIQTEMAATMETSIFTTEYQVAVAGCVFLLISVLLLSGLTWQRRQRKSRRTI


Tests used:
[1] = target: T1, His-tagged human IL2RA protein …; assay: SPR (Biacore 8K), antibody captured on Protein A chip, His-tagged IL2RA as analyte
[2] = target: T2, monkey (Macaca fascicularis) IL2RA …; assay: flow cytometry on CHO-S-fasIL2RA cells
[3] = target: T3, human IL2RA expressed on CHO-S cells …; assay: flow cytometry on CHO-S-hIL2RA cells

Binder | binding result [1] | binding result [2] | binding result [3]
anti-IL2RA antibody 7B5 (antibody, V domains shown) VH: EVQLQQWGAGLLKPSETLSLTCAVYGGSFSGYYWNWIRQPPGKGLEWIGESDHSGSTHFNPSLKSRVTISLDTSKNQFSLKLNSVTAADTAVYFCARAPDYGDFDHWGQGILVTVSS VL: DIQMTQSPDSLAVSLGERATINCRSSQSVLHSSTNKRYLAWYQQKPRQPPKLLIYWTSTRESGVPDRFSGSGSGTDFTLTISSLQAEDVAVYFCQQYYSTPYTFGQGTKLEIK | binds | binds | binds
anti-IL2RA antibody 13F9 (antibody, V domains shown) VH: QVQLVQSGAEVKRPGASVKVSCKASGYTFTTYAIHWVRQAPGQRLEWMGWINADNGYTKYSQNFQGRVTITRDTSASTAYMDLSTLRSEDTALYYCARTPRYCTSTSCSTGYYYYGMDVWGQGTTVTVSS VL: not shown | binds | binds | binds
anti-IL2RA antibody 11C3 (antibody, V domains shown) VH: QVQLVQSGAEVKKPGASVKVSCKASGYTFNSYYIHWVRQAPGQGLEWLGIINPTGGRTIYAQKFQGRVTMTRDTSTTTVDMELSSLRSEDTAVYYCARVPGYCKDTSCQDFYYYYGMDVWGQGSTVTVSS VL: not shown | binds | binds | binds
anti-IL2RA antibody 11C12 (antibody, V domains shown) VH: QVQLVQSGGGLVQPGGSLRLSCSASGLTFSSYGMHWVRQAPGKGLDYVSGITNNGGRTEYADSVKGRFTISRDNSKNTLYLQMSSLRTEDTAVYYCVKEDWNGQYYYYAMDVWGQGTTVTVSS VL: not shown | binds | binds | binds

More lines, now with the values ahead:

binding result [1] | binding result [2] | binding result [3] | Binder
binds | binds | binds | anti-IL2RA antibody 14C2 (antibody, V domains shown) VH: QVQLVQSGGGVVQPGRSLRLSCAASGFTFSTYGMHWVRQAPGKGLEWVAVISYDGSDKIYADSVKGRFTISRDNSKNTLFLQMNSLRAEDTAVYYCATGPMENYYYYNMDVWGLGTTVTVSS VL: not shown
binds | binds | binds | anti-IL2RA antibody 11D2 (antibody, V domains shown) VH: QVQLVQSGGGVVQPGRSLRLSCAASGFTFTNYAIHWVRQAPGKGLEWVAVIWSDGDNKYYADSVKGRFTISRDNSKNTLYLQMNSLRAEDTAVYYCARTPWYCTSTNCYTGYYYYGMDVWGQGTTVTVSS VL: not shown
binds | binds | binds | anti-IL2RA antibody 5D9 (antibody, V domains shown, Variable regions were cloned into a vector with the human IgG constant region; also called 5D9-IgG1) VH: EVQLVESGGGLVQPGGSLRLSCAASGFTVSSNYMSWVRQTPGKGLELVSFIYSGGITSYADSVRGRFTISRDNSKNTLYLQMNSLRAEDTAVYYCARDDYSNYFDYWGQGTLVTVSS VL: DIQMTQSPSSVSASVGDRVTITCRASQGISNWLAWYQQKPGKAPKLLIFAASSLQSGVPSRFSGSGSGTDFTLTISSLQPEDFATYYCQQAKSFPITFGQGTRLEIK
